Drawing on PMC11806106, this text covers half-time of deactivation of the MOR FRET sensor after washout of 100 µM agonist (single-cell FRET), on-rate Kon, calculated from the Koff of sensor deactivation and the EC50 (single-cell FRET, 100 µM agonist) and EC50 of the agonist-induced change of the FRET emission ratio of the MOR FRET conformation sensor (concentration-response, 96-well plate reader) for 2 substances.

Assay [1] addresses MOR FRET sensor (rat MOR with sYFP2 inserted after G267, truncated after T370, mTurquoise2 at the C-terminus) (rat) (UniProt P33535).
T370 sequence (P33535 1-370): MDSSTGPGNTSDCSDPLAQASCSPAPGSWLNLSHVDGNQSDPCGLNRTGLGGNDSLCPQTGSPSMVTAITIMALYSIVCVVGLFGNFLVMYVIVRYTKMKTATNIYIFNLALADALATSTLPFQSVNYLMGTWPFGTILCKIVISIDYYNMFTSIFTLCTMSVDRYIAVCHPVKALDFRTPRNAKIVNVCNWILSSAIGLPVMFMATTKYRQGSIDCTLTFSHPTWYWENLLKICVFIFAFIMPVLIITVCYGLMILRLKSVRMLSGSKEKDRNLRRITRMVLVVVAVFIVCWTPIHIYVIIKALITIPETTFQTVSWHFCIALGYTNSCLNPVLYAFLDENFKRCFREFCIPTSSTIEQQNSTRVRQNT
The target is the same in assay [2]. This is another data set of the same source.

DAMGO (peptide): in assay [1], the half-time of deactivation of the MOR FRET sensor after washout of 100 µM agonist (single-cell FRET) was below 10 s; the on-rate Kon, calculated from the Koff of sensor deactivation and the EC50 (single-cell FRET, 100 µM agonist) was 167000 M⁻¹ s⁻¹. Besides, in assay [2], the EC50 of the agonist-induced change of the FRET emission ratio of the MOR FRET conformation sensor (concentration-response, 96-well plate reader) worked out at 430 nM.

The substance Met-enkephalin (peptide) had a half-time of deactivation of the MOR FRET sensor after washout of 100 µM agonist (single-cell FRET) in assay [1] below 10 s.
